B1: Hammerhead Ribozyme (parent)
chain: ACCGGAUGUGCUUUCCGGUCUGAUGAGUCCGUGAGGACGAAACAG

The variants in this data set derive from B1. Description: self-cleavage, relative activity (ratio to wild type); higher = more cleavage; co-transcriptional.
For G17U G31C, the self-cleavage came to 0.86.

As for G17U G31A, the self-cleavage was 0.918.

With G17U G31U, the self-cleavage amounted to 0.834.

With G17U C30U, the self-cleavage was 0.755.

For G17U C30A, the self-cleavage was determined as 0.583.

Take G17U C30G: the self-cleavage was found to be 0.59.

On to G18C A26G, for which the self-cleavage worked out at 0.319.

Turning to G18C A26C, the self-cleavage amounted to 0.354.

Regarding G18C A26U, the self-cleavage was 0.334.

Regarding G17U, the self-cleavage amounted to 0.855.

For G17U G36A, the self-cleavage amounted to 0.621.

Consider G17U G36C, for which the self-cleavage is 0.336.

For the variant G17U G36U, the self-cleavage came to 0.46.

For G18U G25C, the self-cleavage amounted to 0.322.

As to G18U G25A, the self-cleavage was 0.369.

As for G18U G25U, the self-cleavage is 0.324.

As to G18A A42U, the self-cleavage was determined as 0.338.

Turning to G18A A42G, the self-cleavage stood at 0.347.

G18A A42C: the self-cleavage stood at 0.376.

G18A U28C: the self-cleavage was determined as 0.388.

Turning to G18A U28G, the self-cleavage is 0.542.

On to G18A U28A, for which the self-cleavage was determined as 0.475.

Turning to G18A A44G, the self-cleavage amounted to 0.702.

With G18A A44C, the self-cleavage was 0.479.

Regarding G18A A44U, the self-cleavage is 0.433.

Regarding G18A A26G, the self-cleavage stood at 0.331.

As for G18A A26C, the self-cleavage was 0.366.

G18A A26U: the self-cleavage is 0.423.

Turning to G18C A23G, the self-cleavage is 0.379.

For the variant G18C A23C, the self-cleavage is 0.298.

In the case of G18C A23U, the self-cleavage worked out at 0.32.

As to G17C G33C, the self-cleavage worked out at 0.458.

Take G17C G33A: the self-cleavage was determined as 0.564.

For G17C G33U, the self-cleavage was found to be 0.623.

Turning to G18A U21A, the self-cleavage amounted to 0.401.

In the case of G18A U21C, the self-cleavage worked out at 0.396.

On to G18A U21G, for which the self-cleavage turned out to be 0.404.

For the variant G18A G31A, the self-cleavage came to 1.05.

In the case of G18A G31U, the self-cleavage amounted to 0.938.

On to G18A G31C, for which the self-cleavage came out at 0.74.

Consider G18U C20G, for which the self-cleavage amounted to 0.382.

In the case of G18U C20A, the self-cleavage came out at 0.326.

G18U C20U: the self-cleavage was found to be 0.437.

In the case of G18U C30A, the self-cleavage is 0.556.

G18U C30U: the self-cleavage came to 0.849.

On to G18U C30G, for which the self-cleavage was 0.493.

Regarding G18U A40C, the self-cleavage came out at 0.394.

In the case of G18U A40U, the self-cleavage is 0.345.

Take G18U A40G: the self-cleavage amounted to 0.357.

Turning to G18C A44U, the self-cleavage turned out to be 0.354.

On to G18C A44G, for which the self-cleavage is 0.643.

As to G18C A44C, the self-cleavage turned out to be 0.435.

G18C A34U: the self-cleavage was 0.409.

For G18C A34C, the self-cleavage was found to be 0.36.

As to G18C A34G, the self-cleavage turned out to be 0.422.

Turning to G18C U32A, the self-cleavage stood at 0.554.

On to G18C U32C, for which the self-cleavage was found to be 0.446.

Regarding G18C U32G, the self-cleavage amounted to 0.503.

On to G18C C43A, for which the self-cleavage was found to be 0.327.

With G18C C43U, the self-cleavage was determined as 0.292.

G18C C43G: the self-cleavage turned out to be 0.358.

For the variant G18C U28A, the self-cleavage was 0.415.

Take G18C U28C: the self-cleavage came to 0.263.

G18C U28G: the self-cleavage amounted to 0.44.

In the case of G17C G35A, the self-cleavage came out at 0.535.

Consider G17C G35C, for which the self-cleavage was determined as 0.403.

G17C G35U: the self-cleavage amounted to 0.371.

For the variant G17U G25A, the self-cleavage was determined as 0.347.

As to G17U G25C, the self-cleavage came to 0.319.

Regarding G17U G25U, the self-cleavage turned out to be 0.37.

Regarding G17U C20U, the self-cleavage is 0.501.

For G17U C20A, the self-cleavage worked out at 0.422.

Take G17U C20G: the self-cleavage came to 0.359.

As to G18A C43U, the self-cleavage was 0.285.

For the variant G18A C43G, the self-cleavage was 0.28.

As for G18A C43A, the self-cleavage amounted to 0.299.

For the variant G17U G27C, the self-cleavage was 0.486.

G17U G27A: the self-cleavage worked out at 0.643.

In the case of G17U G27U, the self-cleavage came to 0.513.

Turning to G18A U24C, the self-cleavage is 0.757.

In the case of G18A U24A, the self-cleavage was determined as 0.748.

G18A U24G: the self-cleavage stood at 0.678.

As to G18C A40G, the self-cleavage worked out at 0.369.

Consider G18C A40C, for which the self-cleavage was found to be 0.389.

For the variant G18C A40U, the self-cleavage is 0.339.

In the case of G17C G36C, the self-cleavage came out at 0.246.

As to G17C G36U, the self-cleavage was 0.392.

In the case of G17C G36A, the self-cleavage was 0.361.

Consider G17U C38A, for which the self-cleavage amounted to 0.465.

In the case of G17U C38U, the self-cleavage is 0.758.

Regarding G17U C38G, the self-cleavage stood at 0.539.

In the case of G18A A34C, the self-cleavage turned out to be 0.537.

Turning to G18A A34G, the self-cleavage worked out at 0.562.

As for G18A A34U, the self-cleavage is 0.515.

With G17U G18U, the self-cleavage stood at 0.442.

In the case of G17U G18C, the self-cleavage was 0.503.

Consider G17U G18A, for which the self-cleavage was determined as 0.419.

G18U C38U: the self-cleavage turned out to be 0.661.

For G18U C38G, the self-cleavage was 0.442.

Consider G18U C38A, for which the self-cleavage stood at 0.527.

As to G17C U19A, the self-cleavage came out at 0.335.

As for G17C U19C, the self-cleavage came to 0.332.

As to G17C U19G, the self-cleavage is 0.337.

As for G17U A23G, the self-cleavage amounted to 0.382.

For G17U A23U, the self-cleavage turned out to be 0.35.

Regarding G17U A23C, the self-cleavage worked out at 0.32.

As for G18C G45C, the self-cleavage was found to be 0.383.

In the case of G18C G45U, the self-cleavage stood at 0.374.

In the case of G18C G45A, the self-cleavage stood at 0.393.

As to G18A G27C, the self-cleavage stood at 0.43.

Take G18A G27A: the self-cleavage was determined as 0.519.

For the variant G18A G27U, the self-cleavage worked out at 0.393.

For the variant G18C A41U, the self-cleavage was 0.36.

Consider G18C A41G, for which the self-cleavage amounted to 0.313.

As to G18C A41C, the self-cleavage is 0.303.

Regarding G18C G35A, the self-cleavage turned out to be 0.537.

In the case of G18C G35U, the self-cleavage worked out at 0.399.

In the case of G18C G35C, the self-cleavage is 0.35.

As to G17U A37G, the self-cleavage was found to be 0.568.

With G17U A37C, the self-cleavage was 0.688.

Turning to G17U A37U, the self-cleavage worked out at 0.586.

On to G17C G25U, for which the self-cleavage is 0.296.

Take G17C G25A: the self-cleavage was 0.362.

Turning to G17C G25C, the self-cleavage was determined as 0.403.

With G18A C20A, the self-cleavage was 0.326.

Take G18A C20U: the self-cleavage worked out at 0.312.

Regarding G18A C20G, the self-cleavage was determined as 0.367.

Regarding G17C U24G, the self-cleavage came out at 0.462.

Turning to G17C U24C, the self-cleavage stood at 0.457.

As to G17C U24A, the self-cleavage is 0.493.

Regarding G18C C20U, the self-cleavage was determined as 0.339.

As for G18C C20A, the self-cleavage was 0.285.

As to G18C C20G, the self-cleavage came to 0.34.

As to G18U A42G, the self-cleavage is 0.37.

Consider G18U A42C, for which the self-cleavage worked out at 0.371.

Turning to G18U A42U, the self-cleavage is 0.339.

As for G17C G45U, the self-cleavage turned out to be 0.394.

G17C G45C: the self-cleavage was 0.4.

In the case of G17C G45A, the self-cleavage was determined as 0.366.

On to G18U, for which the self-cleavage was determined as 0.875.

Take G18C: the self-cleavage stood at 0.62.

Consider G18A, for which the self-cleavage was 0.831.

Turning to G18C G27U, the self-cleavage worked out at 0.298.

On to G18C G27C, for which the self-cleavage was determined as 0.402.

With G18C G27A, the self-cleavage was determined as 0.416.

As for G18A A37G, the self-cleavage stood at 0.676.

With G18A A37U, the self-cleavage was 0.55.

Regarding G18A A37C, the self-cleavage was 0.611.

For the variant G17U U28C, the self-cleavage was found to be 0.495.

Regarding G17U U28A, the self-cleavage is 0.58.

Regarding G17U U28G, the self-cleavage was found to be 0.513.

As to G17U G33A, the self-cleavage was found to be 0.862.

Take G17U G33U: the self-cleavage worked out at 0.9.

In the case of G17U G33C, the self-cleavage was 0.851.

With G17C U32G, the self-cleavage amounted to 0.545.

In the case of G17C U32C, the self-cleavage turned out to be 0.444.

Regarding G17C U32A, the self-cleavage stood at 0.497.

Take G18A A41C: the self-cleavage stood at 0.328.

For G18A A41G, the self-cleavage stood at 0.37.

G18A A41U: the self-cleavage is 0.358.

Regarding G18C C30G, the self-cleavage turned out to be 0.372.

As to G18C C30A, the self-cleavage is 0.451.

In the case of G18C C30U, the self-cleavage came to 0.606.

Regarding G18U A26G, the self-cleavage turned out to be 0.339.

On to G18U A26U, for which the self-cleavage stood at 0.368.

Turning to G18U A26C, the self-cleavage is 0.328.

For the variant G18A G45A, the self-cleavage was determined as 0.354.

These data come from the RNAGym collection of RNA variant scans (doi:10.7554/elife.80360).
